Data on 28 molecules can be found in patent US20180155451A1 (published 2018).

B1: GpH7-B3 variant S298_09D/GpL16-k0 (antibody, human IgG1, kappa)
heavy: not shown
light: DIVMTQSPLSLPVTPGEPASISCQASESLVHSNRNTYLHWYLQKPGQSPQLLIYKVSNRFSGVPDRFSGSGSGTDFTLKISRVEAEDVGVYYCSQNTHVPPTFGQGTKVEIERTVAAPSVFIFPPSDEQLKSGTASVVCLLNNFYPREAKVQWKVDNALQSGNSQESVTEQDSKDSTYSLSSTLTLSKADYEKHKVYACEVTHQGLSSPVTKSFNRGEC
notes: homodimerized antibody, mutation in both H chains; also called S298_09D Ho Ab
B2: GpH7-B3 variant K326_20W/GpL16-k0 (antibody, human IgG1, kappa)
heavy: not shown
light: B1 light
notes: homodimerized antibody, mutation in both H chains; also called K326_20W Ho Ab
B3: GpH7-B3 variant S267_10E/GpL16-k0 (antibody, human IgG1, kappa)
heavy: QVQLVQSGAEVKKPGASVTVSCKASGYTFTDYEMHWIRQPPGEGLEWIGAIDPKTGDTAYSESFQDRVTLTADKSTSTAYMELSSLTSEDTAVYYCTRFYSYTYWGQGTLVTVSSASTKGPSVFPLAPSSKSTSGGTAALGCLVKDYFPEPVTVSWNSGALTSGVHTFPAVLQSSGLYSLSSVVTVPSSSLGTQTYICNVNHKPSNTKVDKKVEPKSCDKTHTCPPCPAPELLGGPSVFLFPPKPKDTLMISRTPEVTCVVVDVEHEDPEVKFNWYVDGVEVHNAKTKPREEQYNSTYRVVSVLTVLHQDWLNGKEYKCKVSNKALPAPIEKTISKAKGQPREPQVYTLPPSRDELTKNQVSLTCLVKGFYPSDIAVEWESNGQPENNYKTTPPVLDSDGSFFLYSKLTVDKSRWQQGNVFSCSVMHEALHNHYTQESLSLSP
light: B1 light
notes: homodimerized antibody, mutation in both H chains; also called S267_10E Ho Ab
B4: GpH7-B3 variant K334_04F/GpL16-k0 (antibody, human IgG1, kappa)
heavy: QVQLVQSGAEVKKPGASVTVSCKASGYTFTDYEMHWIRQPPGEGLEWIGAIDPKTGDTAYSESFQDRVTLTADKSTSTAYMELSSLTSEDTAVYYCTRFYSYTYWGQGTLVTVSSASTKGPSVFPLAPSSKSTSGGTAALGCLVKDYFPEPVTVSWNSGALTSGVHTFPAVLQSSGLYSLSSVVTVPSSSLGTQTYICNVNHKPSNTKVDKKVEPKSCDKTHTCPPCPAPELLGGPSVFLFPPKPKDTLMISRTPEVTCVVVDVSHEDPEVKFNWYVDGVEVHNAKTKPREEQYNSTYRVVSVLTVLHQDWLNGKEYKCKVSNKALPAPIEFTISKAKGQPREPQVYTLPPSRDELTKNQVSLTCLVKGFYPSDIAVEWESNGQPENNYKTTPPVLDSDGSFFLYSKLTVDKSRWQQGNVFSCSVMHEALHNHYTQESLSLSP
light: B1 light
notes: homodimerized antibody, mutation in both H chains; also called K334_04F Ho Ab
B5: GpH7-B3 variant K334_19Q/GpL16-k0 (antibody, human IgG1, kappa)
heavy: not shown
light: B1 light
notes: homodimerized antibody, mutation in both H chains; also called K334_19Q Ho Ab
B6: GpH7-B3 variant Y300_07I/GpL16-k0 (antibody, human IgG1, kappa)
heavy: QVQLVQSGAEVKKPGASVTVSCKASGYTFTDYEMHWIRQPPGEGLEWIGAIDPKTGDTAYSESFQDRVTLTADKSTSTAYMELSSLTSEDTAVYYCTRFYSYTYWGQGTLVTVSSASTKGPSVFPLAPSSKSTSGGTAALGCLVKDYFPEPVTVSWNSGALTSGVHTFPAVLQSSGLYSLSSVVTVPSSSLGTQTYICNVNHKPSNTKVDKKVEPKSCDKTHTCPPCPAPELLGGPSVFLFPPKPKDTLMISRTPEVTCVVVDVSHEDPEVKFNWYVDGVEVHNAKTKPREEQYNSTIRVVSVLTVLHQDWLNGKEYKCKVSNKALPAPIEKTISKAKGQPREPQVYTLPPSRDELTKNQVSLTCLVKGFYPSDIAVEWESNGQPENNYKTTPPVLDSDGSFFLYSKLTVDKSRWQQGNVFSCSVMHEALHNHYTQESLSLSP
light: B1 light
notes: homodimerized antibody, mutation in both H chains; also called Y300_07I Ho Ab
B7: GpH7-B3 variant S239_10E/GpL16-k0 (antibody, human IgG1, kappa)
heavy: not shown
light: B1 light
notes: homodimerized antibody, mutation in both H chains; also called S239_10E Ho Ab
B8: GpH7-B3 variant Y296_02A/GpL16-k0 (antibody, human IgG1, kappa)
heavy: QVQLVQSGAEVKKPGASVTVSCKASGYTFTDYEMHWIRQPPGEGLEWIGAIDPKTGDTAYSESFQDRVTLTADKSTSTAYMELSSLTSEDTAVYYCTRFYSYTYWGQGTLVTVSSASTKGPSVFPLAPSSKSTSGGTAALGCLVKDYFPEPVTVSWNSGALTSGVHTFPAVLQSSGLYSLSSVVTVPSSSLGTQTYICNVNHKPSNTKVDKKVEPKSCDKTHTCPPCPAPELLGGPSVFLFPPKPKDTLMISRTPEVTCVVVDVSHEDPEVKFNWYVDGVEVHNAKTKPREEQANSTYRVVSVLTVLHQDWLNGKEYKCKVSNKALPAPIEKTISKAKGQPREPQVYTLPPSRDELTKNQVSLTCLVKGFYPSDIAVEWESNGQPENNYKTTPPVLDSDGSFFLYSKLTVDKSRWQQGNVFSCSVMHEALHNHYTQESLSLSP
light: B1 light
notes: homodimerized antibody, mutation in both H chains; also called Y296_02A Ho Ab
B9: GpH7-B3 variant K334_08L/GpL16-k0 (antibody, human IgG1, kappa)
heavy: not shown
light: B1 light
notes: homodimerized antibody, mutation in both H chains; also called K334_08L Ho Ab
B10: GpH7-B3 variant Y300_16H/GpL16-k0 (antibody, human IgG1, kappa)
heavy: not shown
light: B1 light
notes: homodimerized antibody, mutation in both H chains; also called Y300_16H Ho Ab
B11: GpH7-B3 variant K334_16H/GpL16-k0 (antibody, human IgG1, kappa)
heavy: not shown
light: B1 light
notes: homodimerized antibody, mutation in both H chains; also called K334_16H Ho Ab
B12: GpH7-B3 variant Y296_03V/GpL16-k0 (antibody, human IgG1, kappa)
heavy: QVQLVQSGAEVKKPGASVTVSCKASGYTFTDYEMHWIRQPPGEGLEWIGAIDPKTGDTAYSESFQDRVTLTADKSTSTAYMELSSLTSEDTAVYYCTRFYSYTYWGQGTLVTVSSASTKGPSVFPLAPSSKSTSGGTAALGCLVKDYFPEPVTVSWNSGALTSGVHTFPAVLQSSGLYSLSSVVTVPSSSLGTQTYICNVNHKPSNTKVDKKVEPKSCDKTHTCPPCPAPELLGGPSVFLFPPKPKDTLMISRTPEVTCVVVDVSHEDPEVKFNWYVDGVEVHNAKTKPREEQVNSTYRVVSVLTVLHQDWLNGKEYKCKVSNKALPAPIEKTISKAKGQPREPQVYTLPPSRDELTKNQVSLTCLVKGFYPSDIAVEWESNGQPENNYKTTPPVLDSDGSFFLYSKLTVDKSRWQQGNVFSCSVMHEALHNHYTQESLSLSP
light: B1 light
notes: homodimerized antibody, mutation in both H chains; also called Y296_03V Ho Ab
B13: GpH7-B3 variant P271_08L/GpL16-k0 (antibody, human IgG1, kappa)
heavy: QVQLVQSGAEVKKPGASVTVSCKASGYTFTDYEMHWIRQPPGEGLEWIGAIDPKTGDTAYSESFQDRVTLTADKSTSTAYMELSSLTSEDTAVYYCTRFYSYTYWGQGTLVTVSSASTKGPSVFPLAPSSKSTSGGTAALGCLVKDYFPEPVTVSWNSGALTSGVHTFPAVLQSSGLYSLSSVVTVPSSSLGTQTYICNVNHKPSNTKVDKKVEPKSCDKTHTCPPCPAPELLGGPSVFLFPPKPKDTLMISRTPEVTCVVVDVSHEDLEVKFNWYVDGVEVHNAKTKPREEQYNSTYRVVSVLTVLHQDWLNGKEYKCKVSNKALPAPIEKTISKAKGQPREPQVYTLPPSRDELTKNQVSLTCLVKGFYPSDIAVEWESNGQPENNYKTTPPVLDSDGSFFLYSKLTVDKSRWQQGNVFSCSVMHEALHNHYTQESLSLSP
light: B1 light
notes: homodimerized antibody, mutation in both H chains; also called P271_08L Ho Ab
B14: GpH7-B3 variant Y296_08L/GpL16-k0 (antibody, human IgG1, kappa)
heavy: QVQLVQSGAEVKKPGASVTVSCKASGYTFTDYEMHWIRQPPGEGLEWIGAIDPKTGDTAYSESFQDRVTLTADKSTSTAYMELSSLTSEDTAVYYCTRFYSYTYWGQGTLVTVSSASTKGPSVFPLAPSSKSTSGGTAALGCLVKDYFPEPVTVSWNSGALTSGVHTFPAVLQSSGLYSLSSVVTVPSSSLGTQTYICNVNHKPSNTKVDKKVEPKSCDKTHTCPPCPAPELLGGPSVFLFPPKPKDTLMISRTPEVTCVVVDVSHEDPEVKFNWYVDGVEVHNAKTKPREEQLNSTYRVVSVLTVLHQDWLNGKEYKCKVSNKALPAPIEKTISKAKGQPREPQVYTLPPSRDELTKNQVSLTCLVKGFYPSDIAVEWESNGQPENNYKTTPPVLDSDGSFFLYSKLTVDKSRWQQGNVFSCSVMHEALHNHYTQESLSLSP
light: B1 light
notes: homodimerized antibody, mutation in both H chains; also called Y296_08L Ho Ab
B15: GpH7-B3 variant S267_18N/GpL16-k0 (antibody, human IgG1, kappa)
heavy: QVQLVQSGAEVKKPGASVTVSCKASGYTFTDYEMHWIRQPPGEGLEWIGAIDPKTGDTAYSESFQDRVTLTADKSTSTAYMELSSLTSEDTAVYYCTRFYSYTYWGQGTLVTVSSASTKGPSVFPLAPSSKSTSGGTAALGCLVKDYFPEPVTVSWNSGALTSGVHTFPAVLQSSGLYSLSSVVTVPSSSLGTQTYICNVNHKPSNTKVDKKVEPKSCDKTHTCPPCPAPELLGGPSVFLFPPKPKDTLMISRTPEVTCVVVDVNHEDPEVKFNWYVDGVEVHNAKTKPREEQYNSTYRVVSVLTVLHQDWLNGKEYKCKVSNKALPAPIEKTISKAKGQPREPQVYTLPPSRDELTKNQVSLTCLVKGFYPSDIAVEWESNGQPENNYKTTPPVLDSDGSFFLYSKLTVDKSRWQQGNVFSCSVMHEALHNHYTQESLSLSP
light: B1 light
notes: homodimerized antibody, mutation in both H chains; also called S267_18N Ho Ab
B16: GpH7-B3 variant P271_10E/GpL16-k0 (antibody, human IgG1, kappa)
heavy: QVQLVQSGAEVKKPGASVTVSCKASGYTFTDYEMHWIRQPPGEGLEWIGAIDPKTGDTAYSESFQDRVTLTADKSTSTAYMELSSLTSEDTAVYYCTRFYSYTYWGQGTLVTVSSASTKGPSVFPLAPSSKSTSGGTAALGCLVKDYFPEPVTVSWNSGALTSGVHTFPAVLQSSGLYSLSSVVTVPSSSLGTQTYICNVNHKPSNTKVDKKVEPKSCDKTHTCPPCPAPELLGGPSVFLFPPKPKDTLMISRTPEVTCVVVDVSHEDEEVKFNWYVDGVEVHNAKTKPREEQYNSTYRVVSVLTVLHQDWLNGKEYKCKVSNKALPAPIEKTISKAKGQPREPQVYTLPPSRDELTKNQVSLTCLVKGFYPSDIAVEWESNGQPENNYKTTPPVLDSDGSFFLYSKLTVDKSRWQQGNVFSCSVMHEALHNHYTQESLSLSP
light: B1 light
notes: homodimerized antibody, mutation in both H chains; also called P271_10E Ho Ab
B17: GpH7-B3 variant S267_19Q/GpL16-k0 (antibody, human IgG1, kappa)
heavy: not shown
light: B1 light
notes: homodimerized antibody, mutation in both H chains; also called S267_19Q Ho Ab
B18: GpH7-B3 variant P271_01G/GpL16-k0 (antibody, human IgG1, kappa)
heavy: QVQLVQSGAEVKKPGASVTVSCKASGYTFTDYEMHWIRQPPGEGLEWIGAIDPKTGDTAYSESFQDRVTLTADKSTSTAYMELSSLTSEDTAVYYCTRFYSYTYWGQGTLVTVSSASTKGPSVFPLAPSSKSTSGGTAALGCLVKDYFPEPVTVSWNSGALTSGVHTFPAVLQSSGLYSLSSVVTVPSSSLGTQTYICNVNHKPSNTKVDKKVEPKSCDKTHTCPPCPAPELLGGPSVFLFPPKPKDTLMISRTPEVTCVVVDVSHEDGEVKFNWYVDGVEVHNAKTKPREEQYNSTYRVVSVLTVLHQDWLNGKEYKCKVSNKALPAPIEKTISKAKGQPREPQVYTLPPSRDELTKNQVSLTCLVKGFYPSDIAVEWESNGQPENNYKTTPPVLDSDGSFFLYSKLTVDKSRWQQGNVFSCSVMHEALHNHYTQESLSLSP
light: B1 light
notes: homodimerized antibody, mutation in both H chains; also called P271_01G Ho Ab
B19: GpH7-A5/GpH7-B3 variant K334_01G/GpL16-k0 (antibody, human IgG1, kappa)
heavy 1: not shown
heavy 2: not shown
light: B1 light
notes: heterodimerized antibody, mutation in one H chain only; also called K334_01G He Ab
B20: GpH7-A5/GpH7-B3 variant K326_10E/GpL16-k0 (antibody, human IgG1, kappa)
heavy 1: not shown
heavy 2: not shown
light: B1 light
notes: heterodimerized antibody, mutation in one H chain only; also called K326_10E He Ab
B21: GpH7-A5/GpH7-B3 variant K326_08L/GpL16-k0 (antibody, human IgG1, kappa)
heavy 1: not shown
heavy 2: not shown
light: B1 light
notes: heterodimerized antibody, mutation in one H chain only; also called K326_08L He Ab
B22: GpH7-A5/GpH7-B3 variant I336_15Y/GpL16-k0 (antibody, human IgG1, kappa)
heavy 1: not shown
heavy 2: not shown
light: B1 light
notes: heterodimerized antibody, mutation in one H chain only; also called I336_15Y He Ab
B23: GpH7-A5/GpH7-B3 variant K326_04F/GpL16-k0 (antibody, human IgG1, kappa)
heavy 1: not shown
heavy 2: not shown
light: B1 light
notes: heterodimerized antibody, mutation in one H chain only; also called K326_04F He Ab
B24: GpH7-A5/GpH7-B3 variant K326_07I/GpL16-k0 (antibody, human IgG1, kappa)
heavy 1: not shown
heavy 2: not shown
light: B1 light
notes: heterodimerized antibody, mutation in one H chain only; also called K326_07I He Ab
B25: GpH7-A5/GpH7-B3 variant K326_03V/GpL16-k0 (antibody, human IgG1, kappa)
heavy 1: not shown
heavy 2: not shown
light: B1 light
notes: heterodimerized antibody, mutation in one H chain only; also called K326_03V He Ab
B26: GpH7-A5/GpH7-B3 variant K326_09D/GpL16-k0 (antibody, human IgG1, kappa)
heavy 1: not shown
heavy 2: not shown
light: B1 light
notes: heterodimerized antibody, mutation in one H chain only; also called K326_09D He Ab
B27: GpH7-A5/GpH7-B3 variant K326_06M/GpL16-k0 (antibody, human IgG1, kappa)
heavy 1: not shown
heavy 2: not shown
light: B1 light
notes: heterodimerized antibody, mutation in one H chain only; also called K326_06M He Ab
B28: GpH7-A5/GpH7-B3 variant I336_16H/GpL16-k0 (antibody, human IgG1, kappa)
heavy 1: not shown
heavy 2: not shown
light: B1 light
notes: heterodimerized antibody, mutation in one H chain only; also called I336_16H He Ab

T1 sequence (P12314 16-292): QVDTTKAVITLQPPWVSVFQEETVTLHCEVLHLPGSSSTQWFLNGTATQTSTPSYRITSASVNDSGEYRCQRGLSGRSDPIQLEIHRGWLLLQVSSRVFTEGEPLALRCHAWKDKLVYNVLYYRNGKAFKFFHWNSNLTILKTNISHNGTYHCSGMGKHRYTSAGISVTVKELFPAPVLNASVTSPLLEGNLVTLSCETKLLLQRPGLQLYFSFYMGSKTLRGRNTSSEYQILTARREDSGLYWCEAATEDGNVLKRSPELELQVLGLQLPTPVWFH

The first experiment concerns the target T1, FcγRIa extracellular domain with C-terminal His tag (human, UniProt P12314 16-292).
T1 construct: extracellular domain; soluble analyte in Biacore; also called FcgRI; CD64
Briefly: SPR (Biacore), relative FcγRIa binding, GpH7-B3/GpL16-k0 (HoCon Ab) = 100. Background: Surface plasmon resonance follows binding to a sensor surface in real time, without labels.
For B1, the Ho/Con_1a is 106 % of control. The same measure, in the same setting: next, B2: 104 % of control. Still for that read-out and setting: next, B3: 107 % of control; B4: 106 % of control. Same read-out and setting: the result for B5 reads 106 % of control; that for B6, 109 % of control; that for B7, 106 % of control. With B8, the Ho/Con_1a was 103 % of control. Still for that read-out and setting: the result for B9 reads 108 % of control. For the molecule B10, the Ho/Con_1a is 111 % of control. For the molecule B11, the Ho/Con_1a is 106 % of control. The same measure, in the same setting: the result for B12 reads 104 % of control.

Take B13: the Ho/Con_1a is 103 % of control. On to B14, for which the Ho/Con_1a is 105 % of control. Same read-out and setting: the result for B15 reads 107 % of control; that for B16, 103 % of control; that for B17, 104 % of control. Same read-out and setting: the result for B18 reads 106 % of control.

In a further experiment the target is T1, FcγRIa extracellular domain with …. Briefly: SPR (Biacore), relative FcγRIa binding, GpH7-A5/GpH7-B3/GpL16-k0 (HeCon Ab) = 100.
As to B19, the He/Con_1a is 104 % of control. On the same count and under the same terms, next, B20: 104 % of control.

Consider B21, for which the He/Con_1a is 100 % of control. B22: the He/Con_1a was 103 % of control.

Take B23: the He/Con_1a is 102 % of control. On to B24, for which the He/Con_1a is 101 % of control. As for B25, the He/Con_1a was 102 % of control.

As for B26, the He/Con_1a was 103 % of control.

In the case of B27, the He/Con_1a was 102 % of control. The same measure, in the same setting: next, B28: 101 % of control.
